Patent US20050049402A1 (Amgen, published 2005)

Columns and labels:
[1] = biological target: T1, cynomolgus macaque TNFα (KinExA) (cynomolgus macaque, UniProt P79337 77-233, limits assumed); experiment: KinExA
T1 construct: also called monkey TNFα
Protocol: (§1) The kinetic measurements of the anti-TNFα antibodies were evaluated using KinExA® and BIACORE® technologies. The KinExA® method involves solution-based determination of formal affinity measurements at equilibrium. To measure the binding kinetics of each human anti-TNFα antibody, two experiments in replicates of three were performed. In both experiments a known concentration of antigen was titrated and a different antibody concentration was added to each antigen titration and allowed to reach binding equilibrium. […] The results were analyzed by dual curve analysis. […] In addition, to negate the possibility of avidity effects, Fab fragments were generated by papain cleavage and the kinetic analysis was repeated (see Table 24).
(§2) The KinExA method was also used to measure the Kd describing this binding affinity.

[2] = biological target: T2, human TNFα (Tumor Necrosis Factor-alpha), soluble (human, UniProt P01375 77-233); experiment: BIACORE, average
T2 construct: Recombinant (R&D 210-TA/CF) in screens; biotinylated in the limited antigen assay; also called hTNFα; H-TNFα

[3] = biological target: T1, cynomolgus macaque TNFα (KinExA); experiment: KinExA, TNFα as a monomer
Protocol: as §1, §2

[4] = biological target: T2, human TNFα (Tumor Necrosis …); experiment: BIACORE, average N = 5
[5] = biological target: T2, human TNFα (Tumor Necrosis …); experiment: cell-based or functional assay
[6] = biological target: T2, human TNFα (Tumor Necrosis …); experiment: cell-based or functional assay; remark: listed apart in the source
[7] = biological target: transmembrane mutant TNFα expressed on the surface of CHO cells (UniProt P01375 1-233); experiment: cell-based or functional assay
Sequence of transmembrane mutant TNFα expressed on the surface of CHO cells (P01375 whole entry, change not shown, form in doubt): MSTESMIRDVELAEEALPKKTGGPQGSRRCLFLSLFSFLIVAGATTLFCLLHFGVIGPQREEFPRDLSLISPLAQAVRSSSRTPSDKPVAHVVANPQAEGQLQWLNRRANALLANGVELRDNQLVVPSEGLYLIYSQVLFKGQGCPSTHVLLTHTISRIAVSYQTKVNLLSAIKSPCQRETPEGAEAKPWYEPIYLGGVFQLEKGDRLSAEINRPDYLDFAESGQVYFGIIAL

[8] = biological target: T2, human TNFα (Tumor Necrosis …); experiment: cell-based or functional assay; remark: listed apart in the source
human TNFα R131Q mutant = human TNFα R131Q mutant (human, UniProt P01375 77-233); experiment: ELISA on chimeric/mutant TNFα
Source text: (§3) In order to define the binding site for different antibodies, a number of residues of hTNFα were mutated using site directed mutagenesis. A panel of antibodies was screened for binding by an ELISA assay. […] Histidine at position 73 was deleted, an example is illustrated in Table 19.

[9] = biological target: T3, H/M BglI chimeric TNFα (human 1-36, murine 37-157) (human; mouse, UniProt P06804 81-235); experiment: ELISA on chimeric/mutant TNFα
T3 construct: Murine range is printed as 37-157 in human-aligned numbering; also called H/MBgl1; Hu/MBgl1
T3 chain: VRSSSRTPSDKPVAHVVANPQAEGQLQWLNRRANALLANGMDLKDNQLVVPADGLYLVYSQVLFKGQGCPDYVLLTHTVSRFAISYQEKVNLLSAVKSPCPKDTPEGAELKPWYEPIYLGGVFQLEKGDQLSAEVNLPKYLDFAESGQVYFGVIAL
Source text: as §3

[10] = biological target: T4, H/M PvuII chimeric TNFα (human 1-125, murine 126-157) (human; mouse); experiment: ELISA on chimeric/mutant TNFα
T4 construct: also called Hu/M PVu11
T4 chain: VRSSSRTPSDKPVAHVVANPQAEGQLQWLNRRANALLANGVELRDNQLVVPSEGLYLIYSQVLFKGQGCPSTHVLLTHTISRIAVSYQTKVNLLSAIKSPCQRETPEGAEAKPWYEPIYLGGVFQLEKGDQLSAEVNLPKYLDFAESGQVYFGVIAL
Source text: as §3

[11] = biological target: T5, H/M HincII chimeric TNFα (human 1-91, murine 92-157) (human; mouse); experiment: ELISA on chimeric/mutant TNFα
T5 construct: Murine range printed 92-157 (human-aligned); also called Hu/M Hin C l1
T5 chain: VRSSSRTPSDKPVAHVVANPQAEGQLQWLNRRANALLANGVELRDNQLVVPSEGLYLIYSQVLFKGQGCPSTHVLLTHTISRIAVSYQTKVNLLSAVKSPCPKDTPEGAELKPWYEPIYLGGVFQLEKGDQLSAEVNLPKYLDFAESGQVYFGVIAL
Source text: as §3

human TNFα R31Q mutant = human TNFα R31Q mutant (human, UniProt P01375 77-233); experiment: ELISA on chimeric/mutant TNFα
Sequence of human TNFα R31Q mutant (P01375 77-233 R107Q): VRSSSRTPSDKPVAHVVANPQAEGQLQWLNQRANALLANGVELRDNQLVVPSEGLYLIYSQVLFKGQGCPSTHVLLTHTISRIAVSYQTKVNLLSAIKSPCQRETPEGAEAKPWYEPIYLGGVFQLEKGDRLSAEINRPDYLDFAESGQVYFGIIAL
Source text: as §3

mouse TNFα = biological target: T6, mouse TNFα (mouse, UniProt P06804 80-235); experiment: binding to chimeric TNF proteins
T6 construct: also called M TNFα; murine TNF
T6 sequence: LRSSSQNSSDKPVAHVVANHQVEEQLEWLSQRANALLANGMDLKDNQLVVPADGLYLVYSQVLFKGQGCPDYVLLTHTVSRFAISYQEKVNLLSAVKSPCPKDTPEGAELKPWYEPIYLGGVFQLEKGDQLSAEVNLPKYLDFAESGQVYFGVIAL

[12] = biological target: T2, human TNFα (Tumor Necrosis …); experiment: KinExA, TNFα counted as one trimer
Protocol: as §1

[13] = biological target: T2, human TNFα (Tumor Necrosis …); experiment: KinExA, TNFα counted as three monomers
Protocol: as §1

human GST-TNFα = biological target: T7, human GST-TNFα (human, UniProt P01375 77-233); experiment: ELISA, plate coated with 0.5 µg/ml human GST-TNFα, HRP goat anti-human IgG detection
T7 construct: also called E. coli expressed soluble human TNF; not shown: GST fusion partner
Protocol: (§4) Anti-TNFα antibodies were also tested for their ability to bind to soluble recombinant TNFα. Human and monkey (cynomolgous macaque) TNFα were expressed in E. coli as fusion proteins with GST. Binding was assessed by ELISA. […] Bound antibody was detected using an HRP-conjugated goat anti-human IgG antibody.

[14] = biological target: T8, monkey (cynomolgous macaque) GST-TNFα (cynomolgous macaque, UniProt P79337 77-233); experiment: ELISA, plate coated with 2 µg/ml monkey (cynomolgus macaque) GST-TNFα, HRP goat anti-human IgG detection
T8 construct: also called E. coli expressed soluble cynomolgous macaque monkey TNF; monkey TNFα; not shown: GST fusion partner
Protocol: as §4

B1: 299v2 (antibody, human IgG1, V domains shown)
VH: QVQLVESGGGVVQPGRSLRLSCAASGFTFSSYDMHWVRQAPGKGLEWVAVIWSDGSIKYYADSVKGRFTISRDNSKNTLYLQMNSLRAEDTAVYYCAREVESAMGGFYYNGMDVWGQGTTVTVSS
VL: DIQMTQSPSSLSASVGDRVTITCRASQGIRIDLGWYQQKPGKAPKRLIYAASTLQSGVPSRFSGSGSGTEFIFTISSLQPEDFASYYCLQHKSYPLTFGGGTKVEIK
notes: XENOMAX derived, recombinant human IgG1 kappa; also called 299v2Ab; SC299V2
[1]
  fold lower affinity than for human TNFα: ~200 fold
[2]
  Kd: 5.7 pM
[3]
  Kd: 626 pM
[4]
  koff: 1.03e-05 s⁻¹
  kon: 2.16e+06 M⁻¹ s⁻¹
[5]
  IC50 1 hr Pre-incubation, TNF induced apoptosis in MCF-7 cells: 18.6 pM
  IC50 18 hr Pre-incubation, TNF induced apoptosis in MCF-7 cells: 1.6 pM
[6]
  Whole Blood IC50, TNFα-induced IL-8 production: 131 pM
[7]
  ADCC (%): 16%
  CDC (%): 9%
[8]
  In vivo Potency (IC50), ALT, hTNFα/D-GalN hepatic injury in mice: 50000 pM
  In vivo Potency (IC50), human TNFα-induced IL-6 in mice: 43000 pM
Human TNFα R131Q mutant
  binding result: binds
[9]
  binding result: binds
[10]
  binding result: binds
[11]
  binding result: binds
Human TNFα R31Q mutant
  binding result: no binding
Mouse TNFα
  binding result: no binding
[12]
  Kd: 1.07 pM
[13]
  Kd: 3.2 pM
Human GST-TNFα
  EC50 (read off the curve): ~4 ng/mL
[14]
  EC50 (read off the curve): ~4 ng/mL
